Assay results taken from patent US6528619B1, “Inhibitors for urokinase receptor” (Roche Diagnostics GmbH, priority 1997, dated 2003).
Positions of bridges follow the written chain, without caps; N, C: chain ends. Residues, ends and D or L forms follow the SMILES beside them. No end group written: not given here.

Tests used:
[1] = molecular target: T1, cell surface-associated uPAR (Homo sapiens, UniProt Q03405); experiment: Flow cytometry: inhibition of binding of FITC-conjugated pro-uPA to cell surface-associated uPAR on PMA-stimulated U937 cells
T1 construct: After stimulation with PMA the U937 cells expressed considerable amounts of cell surface-associated uPAR; endogenous in cells; host or cells: U937 cells stimulated with PMA
T1 sequence (Q03405 23-305): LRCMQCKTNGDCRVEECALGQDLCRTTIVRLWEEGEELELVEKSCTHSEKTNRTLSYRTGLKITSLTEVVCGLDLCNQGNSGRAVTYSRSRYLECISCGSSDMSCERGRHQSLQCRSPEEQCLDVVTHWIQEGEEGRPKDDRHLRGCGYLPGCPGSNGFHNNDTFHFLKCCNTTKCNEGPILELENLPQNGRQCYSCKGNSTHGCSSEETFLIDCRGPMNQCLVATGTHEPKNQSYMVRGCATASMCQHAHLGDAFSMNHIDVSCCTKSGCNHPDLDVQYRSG
Procedure: The ability of the synthetic peptides to inhibit the uPA/-uPAR interaction was determined by means of flow cytometry on a FACScan flow cytometer (Becton-Dickinson, Heidelberg, Germany) using the human promyeloid cell line U937 as a source of cellular native uPAR (Chuchulowski et al., Fibrinolysis 6, Suppl. 4 (1992), 95-102; Magdolen et al., (1996), supra). The U937 cells were stimulated with […] phorbol-12-myristate-13-acetate (PMA) for 48 h. After stimulation with PMA the U937 cells expressed considerable amounts of cell surface-associated uPAR.
The stimulated cells were treated for 1 min at room temperature with 50 mM glycine HCl, 0.1 NaCl, pH 3.6 in order to dissociate endogenous receptor-bound uPA. Subsequently the acidic buffer was neutralized with 0.5 M HEPES-100 mM NaCl, pH 7.5. The cells were then immediately washed twice with PBS/0.1% bovine serum albumin (BSA) and centrifuged for 10 min at room temperature and 300×g. The cells were resuspended in PBS/0.1% BSA, adjusted to a concentration of 10^6 cells per ml and simultaneously incubated for 45 minutes at room temperature with 16 ng FITC-conjugated pro-uPA and various amounts of the synthetic peptides. Before the analysis, propidium iodide, a fluorescent dye which specifically binds double-stranded DNA, was added to each sample in order to determine the viability of the analysed U937 cells. Damaged, propidium iodide-labelled cells were excluded from the analysis.
For this the purified peptides were analysed by mass spectroscopy, quantified by amino acid analysis and then tested by flow cytometry according to the method described in 1.3 for their ability to inhibit the binding of fluorescent-labelled pro-uPA to the uPA receptor on U937 cells.

[2] = molecular target: T2, recombinant human uPAR (Homo sapiens, UniProt Q03405); experiment: Microtitre plate solid phase ATF-ligand binding test (competition with ATF for uPAR); conditions: for inhibition of the binding of ATF to uPAR / uPAR binding capacity: 0.6 ng ATF together with 15 μg synthetic peptide per ml, FIG. 2
T2 construct: made in house; host or cells: CHO cells
T2 sequence (Q03405 23-299 limits assumed): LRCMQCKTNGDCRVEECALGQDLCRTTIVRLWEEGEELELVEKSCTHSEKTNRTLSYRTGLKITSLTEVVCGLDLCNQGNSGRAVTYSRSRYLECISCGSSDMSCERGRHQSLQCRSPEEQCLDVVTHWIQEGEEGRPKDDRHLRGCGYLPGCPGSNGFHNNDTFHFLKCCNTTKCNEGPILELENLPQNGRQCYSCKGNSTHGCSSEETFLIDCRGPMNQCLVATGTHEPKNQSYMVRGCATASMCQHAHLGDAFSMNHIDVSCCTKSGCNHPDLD
Procedure: In addition to the flow cytometric analyses, a solid phase ATF-ligand binding test was carried out in order to examine the interactions of synthetic peptides with the uPAR. For this microtitre plates were coated with recombinant human uPAR from CHO cells (Wilhelm et al., FEBS Lett. 337 (1994), 131-134; Magdolen et al., Electrophoresis 16 (1995), 813-816) and the remaining protein-binding sites were saturated with 2% BSA (weight/vol.). After incubation with the samples (0.6 ng ATF together with 15 μg synthetic peptide per ml) and several wash steps, the amount of ATF which had bound to the immobilized uPAR on the microtitre plate was determined using a biotinylated monoclonal mouse antibody against the kringle domain of ATF (No. 377, American Diagnostics, Greenwich, Conn., USA) and subsequent addition of avidin-peroxidase conjugate and 3,3′,5,5′-tetramethylbenzidine/[…] as a substrate for the peroxidase. The presence of synthetic peptides which compete with the ATF binding to uPAR reduces the conversion of the chromogenis substrate.
A series of peptides with variable sequence regions from the receptor binding region of uPA were synthesized and were increasingly shortened at the amino terminus starting with uPA10-32. The microtitre plate solid phase binding test described in 1.4 was used to determine the inhibitory capacity of these peptides.

[3] = Stability of binding activity after long storage in aqueous solution or repeated freeze/thaw cycles; assay type: physicochemical; conditions: compared with linear uPA19-31
[4] = molecular target: T3, recombinant human uPAR from CHO cells (human, UniProt Q03405 23-299, limits assumed); experiment: solid phase ATF-ligand binding test, competition with ATF on immobilized recombinant uPAR
T3 construct: Magdolen et al. 1995; also called immobilized uPAR
T3 sequence (Q03405 23-299 limits assumed): as above

[5] = molecular target: T4, cell surface-associated uPA receptor (uPAR) on PMA-stimulated human U937 cells (human, UniProt Q03405 23-305); experiment: flow cytometry, competition with FITC-pro-uPA on U937 cells
T4 construct: whole, on cells; also called urokinase receptor; cellular native uPAR
T4 sequence (Q03405 23-305): as the sequence (Q03405 23-305) above
Procedure: (§1) The U937 cells were stimulated with […] phorbol-12-myristate-13-acetate (PMA) for 48 h.
(§2) Subsequently the acidic buffer was neutralized with 0.5 M HEPES-100 mM NaCl, pH 7.5. The cells were then immediately washed twice with PBS/0.1% bovine serum albumin (BSA) and centrifuged for 10 min at room temperature and 300×g. […] Before the analysis, propidium iodide, a fluorescent dye which specifically binds double-stranded DNA, was added to each sample in order to determine the viability of the analysed U937 cells. Damaged, propidium iodide-labelled cells were excluded from the analysis.

[6] = molecular target: T4, cell surface-associated uPA receptor …; experiment: flow cytometry, competition with FITC-pro-uPA on U937 cells (section 2.1)
Procedure: as §1, §2

CC[C@H](C)[C@H](NC(=O)[C@H](CC(N)=O)NC(=O)[C@H](CO)NC(=O)[C@H](Cc1ccccc1)NC(=O)[C@H](Cc1ccc(O)cc1)NC(=O)[C@H](CCCCN)NC(=O)[C@H](CC(N)=O)NC(=O)[C@H](CO)NC(=O)[C@@H](NC(=O)[C@H](CS)NC(=O)[C@@H](NC(=O)CNC(=O)CN)[C@@H](C)O)C(C)C)C(=O)N[C@@H](Cc1c[nH]cn1)C(=O)N[C@@H](Cc1c[nH]c2ccccc12)C(=O)N[C@@H](CS)C(=O)N[C@@H](CC(N)=O)C(=O)O [uPA16-32] (H-GGTCVSNKYFSNIHWCN-OH; N-terminus and C-terminus assumed)
IC50 [1]: ~3.2 µM
molar excess resulting in a 50% inhibition of the binding of uPA ([1]; U937 cells, 16 ng FITC-conjugated pro-uPA, 45 min, room temperature): approximately 3,000 molar excess
higher affinity to uPAR compared to the two other peptides ([1]; versus uPA12-32 [C19A] and clone 20 peptide): 4- to 5 fold
inhibition of the binding of ATF to uPAR / uPAR binding capacity [2]: effectively inhibit the binding of ATF to uPAR

cyclo^19,31uPA19-31: cyclic peptide which contains an intramolecular disulfide bond between the cysteine residues at positions 19 and 31 (CVSNKYFSNIHWC; disulfide 1-13)
stability of binding activity [3]: significantly more stable
inhibition of the binding of uPA to the uPA receptor ([2]; cyclic peptide with disulfide bond between Cys 19 and 31): still able to inhibit the binding of uPA to the uPA receptor

uPA10-32: peptide from the receptor binding region of uPA, amino acids 10-32 (NCDCLNGGTCVSNKYFSNIHWCN)
inhibition of the binding of ATF to uPAR / uPAR binding capacity [2]: effectively inhibit the binding of ATF to uPAR

uPA12-31: peptide from the receptor binding region of uPA (DCLNGGTCVSNKYFSNIHWC)
inhibition of the binding of ATF to uPAR / uPAR binding capacity [2]: effectively inhibit the binding of ATF to uPAR

uPA14-32: peptide having the amino acids 14 to 32 of uPA (LNGGTCVSNKYFSNIHWCN) [reference compound]
inhibition of the binding of ATF to uPAR / uPAR binding capacity [2]: effectively inhibit the binding of ATF to uPAR

uPA17-32: peptide from the receptor binding region of uPA (GTCVSNKYFSNIHWCN)
inhibition of the binding of ATF to uPAR / uPAR binding capacity [2]: considerably reduced uPAR binding capacities

uPA18-30: linear peptide from the receptor binding region of uPA (TCVSNKYFSNIHW)
inhibition of the binding of ATF to uPAR / uPAR binding capacity [2]: no significant binding capacity

uPA18-34: peptide from the receptor binding region of uPA (TCVSNKYFSNIHWCNCP)
inhibition of the binding of ATF to uPAR / uPAR binding capacity [2]: considerably reduced uPAR binding capacities

uPA20-30: linear peptide from the receptor binding region of uPA (VSNKYFSNIHW)
inhibition of the binding of ATF to uPAR / uPAR binding capacity [2]: no significant binding capacity

uPA20-32: linear peptide from the receptor binding region of uPA (VSNKYFSNIHWCN)
inhibition of the binding of ATF to uPAR / uPAR binding capacity [2]: no significant binding capacity

uPA20-34: peptide from the receptor binding region of uPA (VSNKYFSNIHWCNCP)
inhibition of the binding of ATF to uPAR / uPAR binding capacity [2]: does not bind at all to the uPAR

TCVSNKYFSNIHW (peptide, UniProt P00749 38-50, looked up, range 18-30) [uPA18-30]
binding result [4]: no binding (tested: 15 µg synthetic peptide per ml)

VSNKYFSNIHWCNCP (peptide, UniProt P00749 40-54, looked up, range 40-54) [uPA20-34]
binding result [4]: no binding (tested: 15 µg synthetic peptide per ml)

GGTCVSNKYFSNIHWCN (peptide, UniProt P00749 36-52, looked up, range 16-32) [uPA16-32]
molar excess for 50% inhibition of the binding of uPA [5]: ~3000 fold molar excess

VSNKYFSNIHWCN (peptide, UniProt P00749 40-52, looked up, range 40-52) [uPA20-32]
binding result [4]: no binding (tested: 15 µg synthetic peptide per ml)

AEPMPHSLNFSQYLWYT [clone 20-peptide AEPMPHSLNFSQYLWYT]
molar excess for 50% inhibition of the binding of uPA [5]: ~12000 fold molar excess

CVSNKYFSNIHWC (Linear form) [linear peptide uPA19-31]
IC50 [6]: ~800 nM
